Measurements from US20200115416A1 (REGENTS OF THE UNIVERSITY OF MINNESOTA, published 2020).
Read-outs that look alike come from different tables or passages of the source. Values belong to the binder of their own block, whether it stands above or below them. Square brackets hold non-standard residues; d marks the D form. hPhe = N[C@@H](CCc1ccccc1)C(=O)O; Nle = CCCC[C@H](N)C(=O)O; Dap = NC[C@H](N)C(=O)O

Key:
Assay in all cases: cell-based or functional assay
[1] = molecular target: T1, mouse melanocortin-5 receptor (mouse, UniProt P41149 1-325)
[2] = molecular target: T2, mouse melanocortin-4 receptor (mouse, UniProt P56450 1-332)
[3] = molecular target: T3, mouse melanocortin-3 receptor (mouse, UniProt P33033 1-323)
[4] = molecular target: T4, mouse melanocortin-1 receptor (mouse, UniProt Q01727 1-315)
[5] = molecular target: human melanocortin-4 receptor (human, UniProt P32245 1-332)
[6] = molecular target: T4, mouse melanocortin-1 receptor; remark: listed apart in the source
[7] = molecular target: T1, mouse melanocortin-5 receptor; remark: listed apart in the source
[8] = molecular target: T2, mouse melanocortin-4 receptor; remark: listed apart in the source
[9] = molecular target: T3, mouse melanocortin-3 receptor; remark: listed apart in the source
[10] = molecular target: T3, mouse melanocortin-3 receptor; remark: listed apart in the source
[11] = molecular target: T4, mouse melanocortin-1 receptor; remark: listed apart in the source
[12] = molecular target: T1, mouse melanocortin-5 receptor; remark: listed apart in the source
[13] = molecular target: T1, mouse melanocortin-5 receptor; remark: listed apart in the source
[14] = molecular target: T4, mouse melanocortin-1 receptor; remark: listed apart in the source

T4 sequence (Q01727 whole entry): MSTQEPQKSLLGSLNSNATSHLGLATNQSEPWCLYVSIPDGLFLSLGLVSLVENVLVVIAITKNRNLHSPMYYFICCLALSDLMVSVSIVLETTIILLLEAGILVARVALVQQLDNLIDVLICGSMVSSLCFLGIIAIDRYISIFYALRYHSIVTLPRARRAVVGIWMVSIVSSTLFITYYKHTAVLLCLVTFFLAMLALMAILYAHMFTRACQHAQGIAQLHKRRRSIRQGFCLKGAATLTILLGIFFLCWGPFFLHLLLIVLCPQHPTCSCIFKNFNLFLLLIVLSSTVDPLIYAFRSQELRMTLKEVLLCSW
human melanocortin-4 receptor, sequence (P32245 whole entry): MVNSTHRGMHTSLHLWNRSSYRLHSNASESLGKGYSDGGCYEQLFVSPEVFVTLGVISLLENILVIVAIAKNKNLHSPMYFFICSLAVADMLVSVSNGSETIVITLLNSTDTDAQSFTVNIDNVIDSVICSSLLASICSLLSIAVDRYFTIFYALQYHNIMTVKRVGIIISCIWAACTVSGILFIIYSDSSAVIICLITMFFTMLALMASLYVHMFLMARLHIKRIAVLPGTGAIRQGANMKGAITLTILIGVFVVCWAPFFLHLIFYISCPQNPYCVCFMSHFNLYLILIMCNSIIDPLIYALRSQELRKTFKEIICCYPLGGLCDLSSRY
T1 sequence (P41149 whole entry): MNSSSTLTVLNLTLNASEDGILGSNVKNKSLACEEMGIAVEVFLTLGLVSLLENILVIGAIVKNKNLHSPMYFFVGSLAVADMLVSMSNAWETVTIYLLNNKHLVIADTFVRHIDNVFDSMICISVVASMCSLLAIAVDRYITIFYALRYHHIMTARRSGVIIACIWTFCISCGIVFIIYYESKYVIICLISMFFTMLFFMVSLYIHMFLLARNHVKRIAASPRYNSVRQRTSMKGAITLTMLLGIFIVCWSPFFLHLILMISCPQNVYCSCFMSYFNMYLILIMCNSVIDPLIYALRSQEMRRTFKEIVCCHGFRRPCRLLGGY
T2 sequence (P56450 whole entry): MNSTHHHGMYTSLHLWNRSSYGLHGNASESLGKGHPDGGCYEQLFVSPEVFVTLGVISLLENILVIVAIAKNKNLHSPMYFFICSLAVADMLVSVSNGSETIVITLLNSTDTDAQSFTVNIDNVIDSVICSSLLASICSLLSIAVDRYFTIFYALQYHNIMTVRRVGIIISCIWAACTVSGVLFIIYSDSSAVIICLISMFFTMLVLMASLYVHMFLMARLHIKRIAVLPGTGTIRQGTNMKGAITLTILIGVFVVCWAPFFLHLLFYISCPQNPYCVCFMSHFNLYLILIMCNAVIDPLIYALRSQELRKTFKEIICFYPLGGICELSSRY
T3 sequence (P33033 whole entry): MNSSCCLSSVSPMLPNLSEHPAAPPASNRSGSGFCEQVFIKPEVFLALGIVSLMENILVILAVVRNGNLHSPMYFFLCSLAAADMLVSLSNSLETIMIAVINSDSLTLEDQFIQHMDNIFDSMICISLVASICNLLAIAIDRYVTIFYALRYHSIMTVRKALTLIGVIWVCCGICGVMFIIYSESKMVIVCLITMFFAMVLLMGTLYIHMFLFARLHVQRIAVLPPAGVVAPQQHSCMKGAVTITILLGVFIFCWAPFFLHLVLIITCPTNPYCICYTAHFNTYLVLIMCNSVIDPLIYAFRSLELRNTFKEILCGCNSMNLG

Binder: cyclo(PRFFAAF[dP]) [c[Pro-Arg-Phe-Phe-Ala-Ala-Phe-DPro]]
inverse agonist apparent potency [1]: 0.25 µM
inverse agonist, % decrease from basal cAMP [1]: -20%
agonist EC50 (cAMP AlphaScreen) [2]: > 100 µM
antagonist pA2 (Schild, agonist NDP-MSH) [2]: 7.32
agonist EC50 (cAMP AlphaScreen) [3]: > 100 µM
antagonist pA2 (Schild, agonist NDP-MSH) [3]: < 5.5
agonist EC50 (cAMP AlphaScreen) [4]: > 100 µM
inverse agonist, % decrease from basal signal [5]: -35%

Binder: cyclo(PRFFNAF[dP]) (also: assayed as TFA salt) [c[Pro-Arg-Phe-Phe-Asn-Ala-Phe-DPro]]
% maximal NDP-MSH response at 100 µM (cAMP AlphaScreen) [4]: 25%
agonist EC50 (cAMP AlphaScreen) [6]: 2.8 µM
partial agonist, % receptor stimulation [6]: 80%
inverse agonist, % decrease from basal signal [5]: -30%

Binder: cyclo(PRFFSAF[dP]) [c[Pro-Arg-Phe-Phe-Ser-Ala-Phe-DPro]]
inverse agonist apparent potency [1]: 0.14 µM
inverse agonist, % decrease from basal cAMP [1]: -25%
agonist EC50 (cAMP AlphaScreen) [2]: > 100 µM
antagonist pA2 (Schild, agonist NDP-MSH) [2]: 7.7
agonist EC50 (cAMP AlphaScreen) [3]: > 100 µM
antagonist pA2 (Schild, agonist NDP-MSH) [3]: 5.9
agonist EC50 (cAMP AlphaScreen) [4]: > 100 µM
inverse agonist, % decrease from basal signal [5]: -25%

Binder: PRFFXAFP (head-to-tail cyclic; Dap at 5; DPro at 8) [c[Pro-Arg-Phe-Phe-Dap-Ala-Phe-DPro]]
inverse agonist apparent potency [1]: 0.06 µM
inverse agonist, % decrease from basal cAMP [1]: -15%
agonist EC50 (cAMP AlphaScreen) [3]: > 100 µM
antagonist pA2 (Schild, agonist NDP-MSH) [3]: 6.52
% maximal NDP-MSH response at 100 µM (cAMP AlphaScreen) [4]: 30%
EC50 (cAMP AlphaScreen, inverse agonist) [7]: > 100 µM
agonist EC50 (cAMP AlphaScreen) [6]: 1.6 µM
partial agonist, % receptor stimulation [6]: 80%
inverse agonist, % decrease from basal signal [5]: -50%

B1: c[Pro-Arg-Phe-Phe-Asn-Ser-Phe-DPro] (peptide)
peptide: cyclo(PRFFNSF[dP])
SMILES: N=C(N)NCCC[C@@H]1NC(=O)[C@@H]2CCCN2C(=O)[C@H]2CCCN2C(=O)[C@H](Cc2ccccc2)NC(=O)[C@H](CO)NC(=O)[C@H](CC(N)=O)NC(=O)[C@H](Cc2ccccc2)NC(=O)[C@H](Cc2ccccc2)NC1=O
inverse agonist, % change from basal cAMP at 100 µM [1]: -30%
agonist EC50 (cAMP AlphaScreen) [2]: > 100 µM
antagonist pA2 (Schild, agonist NDP-MSH) [2]: 8.2
agonist EC50 (cAMP AlphaScreen) [3]: > 100 µM
antagonist pA2 (Schild, agonist NDP-MSH) [3]: 6.2
agonist EC50 (cAMP AlphaScreen) [4]: > 100 µM
antagonist pA2 (Schild, agonist NDP-MSH) [8]: 8.1
antagonist pA2 (Schild, agonist NDP-MSH) [9]: 6.1
inverse agonist efficacy, % relative to basal [7]: -14%
agonist EC50 (cAMP AlphaScreen) [6]: 1.2 µM

Binder: PRFFXAFP (head-to-tail cyclic; DPhe at 4; Dap at 5; DPro at 8) [c[Pro-Arg-Phe-DPhe-Dap-Ala-Phe-DPro]]
agonist EC50 (cAMP AlphaScreen) [12]: > 100 µM
agonist EC50 (cAMP AlphaScreen) [10]: > 100 µM
antagonist pA2 (Schild, agonist NDP-MSH) [10]: < 5.5
agonist EC50 (cAMP AlphaScreen) [11]: 0.8 µM
partial agonist efficacy, % of NDP-MSH [11]: 75%

Binder: PRFFXAFP (head-to-tail cyclic; DPhe at 3 and 4; Dap at 5; DPro at 8) [c[Pro-Arg-DPhe-DPhe-Dap-Ala-Phe-DPro]]
agonist EC50 (cAMP AlphaScreen) [12]: > 100 µM
agonist EC50 (cAMP AlphaScreen) [10]: > 100 µM
antagonist pA2 (Schild, agonist NDP-MSH) [10]: 5.7
agonist EC50 (cAMP AlphaScreen) [11]: 0.7 µM

Binder: cyclo(PRFFNAG[dP]) [c[Pro-Arg-Phe-Phe-Asn-Ala-Gly-DPro]]
inverse agonist, % change from basal cAMP at 100 µM [13]: -25%
% activation at 100 µM (cAMP AlphaScreen) [14]: 60%

Binder: cyclo(PRFFNAS[dP]) [c[Pro-Arg-Phe-Phe-Asn-Ala-Ser-DPro]]
inverse agonist, % change from basal cAMP at 100 µM [13]: -55%
% activation at 100 µM (cAMP AlphaScreen) [14]: 35%

Binder: PRFFXAFP (head-to-tail cyclic; Abu at 5; DPro at 8) [c[Pro-Arg-Phe-Phe-Abu-Ala-Phe-DPro]]
inverse agonist apparent potency [1]: 0.16 µM
inverse agonist, % decrease from basal cAMP [1]: -20%
agonist EC50 (cAMP AlphaScreen) [3]: > 100 µM
antagonist pA2 (Schild, agonist NDP-MSH) [3]: < 5.5
agonist EC50 (cAMP AlphaScreen) [4]: > 100 µM
inverse agonist, % decrease from basal signal [5]: -15%

Binder: cyclo(PRFFNAK[dP]) [c[Pro-Arg-Phe-Phe-Asn-Ala-Lys-DPro]]
inverse agonist, % change from basal cAMP at 100 µM [13]: -40%

Binder: cyclo(PRFFNAL[dP]) [c[Pro-Arg-Phe-Phe-Asn-Ala-Leu-DPro]]
inverse agonist, % change from basal cAMP at 100 µM [13]: -35%

Binder: cyclo(PRFFNA[Nle][dP]) [c[Pro-Arg-Phe-Phe-Asn-Ala-Nle-DPro]]
inverse agonist, % change from basal cAMP at 100 µM [13]: -35%
partial agonist, % receptor stimulation [6]: 50%

Binder: cyclo(PRFFNAW[dP]) [c[Pro-Arg-Phe-Phe-Asn-Ala-Trp-DPro]]
inverse agonist apparent potency [13]: 0.15 µM
inverse agonist, % decrease from basal cAMP [13]: -20%

Binder: cyclo(PRFFNAY[dP]) [c[Pro-Arg-Phe-Phe-Asn-Ala-Tyr-DPro]]
inverse agonist, % change from basal cAMP at 100 µM [13]: -40%

Binder: PRFFNAXP (head-to-tail cyclic; Cha at 7; DPro at 8) [c[Pro-Arg-Phe-Phe-Asn-Ala-Cha-DPro]]
inverse agonist apparent potency [13]: 0.78 µM
inverse agonist, % decrease from basal cAMP [13]: -20%

Binder: cyclo(PRFFNA[hPhe][dP]) [c[Pro-Arg-Phe-Phe-Asn-Ala-hPhe-DPro]]
inverse agonist apparent potency [13]: 0.29 µM
inverse agonist, % decrease from basal cAMP [13]: -20%

Binder: PRFFXAFP (head-to-tail cyclic; DDap at 5; DPro at 8) [c[Pro-Arg-Phe-Phe-DDap-Ala-Phe-DPro]]
inverse agonist apparent potency [1]: 0.11 µM
inverse agonist, % decrease from basal cAMP [1]: -10%
agonist EC50 (cAMP AlphaScreen) [3]: > 100 µM
antagonist pA2 (Schild, agonist NDP-MSH) [3]: 6.7
agonist EC50 (cAMP AlphaScreen) [4]: > 100 µM
inverse agonist, % decrease from basal signal [5]: -30%

Now from value to binder:

% maximal NDP-MSH response at 100 µM (cAMP AlphaScreen) [10]: 35%
agonist EC50 (cAMP AlphaScreen) [11]: 1.2 µM
Binder: cyclo(P[dR]F[dF]NAF[dP]) [c[Pro-DArg-Phe-DPhe-Asn-Ala-Phe-DPro]]

inverse agonist, % change from basal cAMP at 100 µM [12]: -30%
agonist EC50 (cAMP AlphaScreen) [10]: > 100 µM
antagonist pA2 (Schild, agonist NDP-MSH) [10]: 6
agonist EC50 (cAMP AlphaScreen) [11]: 0.8 µM
partial agonist efficacy, % of NDP-MSH [11]: 70%
Binder: PRFFXAFP (head-to-tail cyclic; DArg at 2; DPhe at 3; Dap at 5; DPro at 8) [c[Pro-DArg-DPhe-Phe-Dap-Ala-Phe-DPro]]

inverse agonist, % change from basal cAMP at 100 µM [12]: -20%
agonist EC50 (cAMP AlphaScreen) [10]: > 100 µM
antagonist pA2 (Schild, agonist NDP-MSH) [10]: 5.7
agonist EC50 (cAMP AlphaScreen) [11]: 0.45 µM
partial agonist efficacy, % of NDP-MSH [11]: 70%
Binder: PRFFXAFP (head-to-tail cyclic; DArg at 2; DPhe at 4; Dap at 5; DPro at 8) [c[Pro-DArg-Phe-DPhe-Dap-Ala-Phe-DPro]]

inverse agonist, % change from basal cAMP at 100 µM [12]: -15%
agonist EC50 (cAMP AlphaScreen) [10]: > 100 µM
antagonist pA2 (Schild, agonist NDP-MSH) [10]: < 5.5
agonist EC50 (cAMP AlphaScreen) [11]: 2.2 µM
partial agonist efficacy, % of NDP-MSH [11]: 60%
Binder: PRFFXAFP (head-to-tail cyclic; DArg at 2; DPhe at 3 and 4; Dap at 5; DPro at 8) [c[Pro-DArg-DPhe-DPhe-Dap-Ala-Phe-DPro]]

antagonist pA2 (Schild, agonist NDP-MSH) [8]: 9.5
antagonist pA2 (Schild, agonist NDP-MSH) [9]: 6.7
EC50 (cAMP AlphaScreen, inverse agonist) [7]: > 100 µM
agonist EC50 (cAMP AlphaScreen) [6]: > 100 µM
B2: c[Pro-Arg-Phe-hPhe-Dap-Ser-Nle-DPro] (peptide)
peptide: cyclo(PRF[hPhe][Dap]S[Nle][dP])
SMILES: CCCC[C@@H]1NC(=O)[C@H](CO)NC(=O)[C@H](CN)NC(=O)[C@H](CCc2ccccc2)NC(=O)[C@H](Cc2ccccc2)NC(=O)[C@H](CCCNC(=N)N)NC(=O)[C@@H]2CCCN2C(=O)[C@H]2CCCN2C1=O

antagonist pA2 (Schild, agonist NDP-MSH) [8]: 8.9
antagonist pA2 (Schild, agonist NDP-MSH) [9]: 8
EC50 (cAMP AlphaScreen, inverse agonist) [7]: > 100 µM
% receptor stimulation at 100 µM (cAMP AlphaScreen) [6]: 25%
B3: c[Pro-Arg-Phe-hPhe-Arg-Ala-Phe-DPro] (peptide)
peptide: cyclo(PRF[hPhe]RAF[dP])
SMILES: C[C@@H]1NC(=O)[C@H](CCCNC(=N)N)NC(=O)[C@H](CCc2ccccc2)NC(=O)[C@H](Cc2ccccc2)NC(=O)[C@H](CCCNC(=N)N)NC(=O)[C@@H]2CCCN2C(=O)[C@H]2CCCN2C(=O)[C@H](Cc2ccccc2)NC1=O

antagonist pA2 (Schild, agonist NDP-MSH) [8]: 8.8
antagonist pA2 (Schild, agonist NDP-MSH) [9]: 7.5
EC50 (cAMP AlphaScreen, inverse agonist) [7]: > 100 µM
agonist EC50 (cAMP AlphaScreen) [6]: > 100 µM
B4: c[Pro-Arg-Phe-hPhe-Arg-Ala-Nle-DPro] (peptide)
peptide: cyclo(PRF[hPhe]RA[Nle][dP])
SMILES: CCCC[C@@H]1NC(=O)[C@H](C)NC(=O)[C@H](CCCNC(=N)N)NC(=O)[C@H](CCc2ccccc2)NC(=O)[C@H](Cc2ccccc2)NC(=O)[C@H](CCCNC(=N)N)NC(=O)[C@@H]2CCCN2C(=O)[C@H]2CCCN2C1=O

antagonist pA2 (Schild, agonist NDP-MSH) [8]: 8.8
antagonist pA2 (Schild, agonist NDP-MSH) [9]: 7.7
EC50 (cAMP AlphaScreen, inverse agonist) [7]: > 100 µM
% receptor stimulation at 100 µM (cAMP AlphaScreen) [6]: 30%
B5: c[Pro-Arg-Phe-hPhe-Arg-Ser-Phe-DPro] (peptide)
peptide: cyclo(PRF[hPhe]RSF[dP])
SMILES: N=C(N)NCCC[C@@H]1NC(=O)[C@H](CCc2ccccc2)NC(=O)[C@H](Cc2ccccc2)NC(=O)[C@H](CCCNC(=N)N)NC(=O)[C@@H]2CCCN2C(=O)[C@H]2CCCN2C(=O)[C@H](Cc2ccccc2)NC(=O)[C@H](CO)NC1=O

antagonist pA2 (Schild, agonist NDP-MSH) [8]: 9.5
antagonist pA2 (Schild, agonist NDP-MSH) [9]: 7.9
EC50 (cAMP AlphaScreen, inverse agonist) [7]: > 100 µM
agonist EC50 (cAMP AlphaScreen) [6]: 0.4 µM
B6: c[Pro-Arg-Phe-hPhe-Arg-Ser-Nle-DPro] (peptide)
peptide: cyclo(PRF[hPhe]RS[Nle][dP])
SMILES: CCCC[C@@H]1NC(=O)[C@H](CO)NC(=O)[C@H](CCCNC(=N)N)NC(=O)[C@H](CCc2ccccc2)NC(=O)[C@H](Cc2ccccc2)NC(=O)[C@H](CCCNC(=N)N)NC(=O)[C@@H]2CCCN2C(=O)[C@H]2CCCN2C1=O
